Reference: patent US20260035459A1, “HUMANIZED CHIMERIC ANTIGEN RECEPTORS TARGETING THE B-CELL RECEPTOR OF CHRONIC LYMPHOCYTIC LEUKEMIA AND USES THEREOF” (AVA LIFESCIENCE GMBH, priority 2022, published 2026)
Positions count from the first letter of the chain named.

B1: mAb01-01: murine monoclonal anti-IGLV3-21^R110 antibody, VL SEQ ID NO: 44, VH SEQ ID NO: 45 (antibody, listed as Mus musculus, V domains shown)
VH: QVQLQQSGPGLVQPSQSLSITCTVSGFSLTSYGIHWVRQSPGKGLEWLGVIWRGGGTDSNAAFMSRLSITKDNSKSQVFFKMNSLQADDTAIYYCARSRYDEEESMNYWGQGTSVTVSS
VL: QIVLTQSPASLSASVGETVTITCRASGNIHSYLAWYQQKQGKSPQLLVYNAKTLADGVPSRFSGSGSGTQYSLKINSLQPEDFGSYYCQHFWNTPPTFGAGTKLELK
B2: H1: humanized anti-IGLV3-21^R110 CAR, VL SEQ ID NO: 7, VH SEQ ID NO: 11, scFv SEQ ID NO: 13 (protein)
scFv: EIVLTQSPSSLSASVGDSVTITCRASGNIHSYLAWYQQKPGKAPKLLIYNAKTLADGVPSRFSGSGSGTQYTLTISSLQPEDFATYYCQHFWNTPPTFGAGTKLELKGGGGSGGGGSGGGGSGGGGSQVQLQESGPGLVKPSETLSLTCTVSGFSLTSYGIHWIRQSPGRGLEWIGVIWRGGGTDSNAAFMSRVTISVDTSKSQVSLKLGSVTAADTAIYYCARSRYDEEESMNYWGQGTSVTVSS
B3: H2: humanized anti-IGLV3-21^R110 CAR, VL SEQ ID NO: 7, VH SEQ ID NO: 12, scFv SEQ ID NO: 14 (protein)
scFv: B2 scFv with V194I, V198R, S203T

Key:
[1] = test system: wild-type IGLV3-21G110-variant; experiment: FACS binding assay on BCR-expressing TKO cells (germline control); set-up: species or system human; details: fluorescently labeled anti-mouse IgG
From the text: (§1) The screening for positive clones was not performed by enzyme linked immunosorbent assay (ELISA) as usual. Since the target structure is a membrane-bound receptor, it is of central importance to validate the binding of the potential antibodies in a cellular system, i.e. while largely preserving the cell physiological states native to this cell type. First, groups of pooled supernatants were examined for binding events using fluorescence activated cell sorting (FACS) analysis. For this purpose different BCR variants were expressed on the surface of a triple knockout (TKO) cell line, which cannot express BCR itself.
(§2) For reconstitution with a ‘BCR of interest’, the corresponding sequence coding for the VH was fused with a human IgM constant segment by polymerase chain reaction (PCR), and heavy (HC) and light (LC) chains were cloned into respective expression vectors each having a CMV promoter. These were introduced into the packaging cell line (Phoenix cell line) by lipofection. After 36 hours of incubation, the virus supernatant was removed and used for spinfection of the TKO cells. BCR expression was determined using anti-IgM and anti-LC antibodies on FACS. For this purpose, some cells were taken and stained with 5 μl antibody each in a total volume of 100 μl in PBS. Both the work to extract the supernatants and the spinfection of the TKO are widely known procedures and known to experts. […]

[2] = target: T1, IGHV3-21/IGLV3-21^R110 BCR (Homo sapiens, UniProt P80748); experiment: FACS binding assay on BCR-expressing TKO cells; details: fluorescently labeled anti-mouse IgG
T1 construct: a complete light chain (LC) DNA covering IGLV3-21^R110 were synthesized; expressed in transfected cells; host or cells: murine triple knockout (TKO) pro-/pre-B cells, retroviral spinfection
From the text: as §1, §2

[3] = test system: OCI-LY1 R110 cell line (OCIR110); experiment: In-vitro cytotoxicity assay (IncuCyte Caspase-3/7), OCI-LY1 R110; assay type: cell-based, human; details: construct 1: IgG4 hinge spacer; construct 2: additional CH2-CH3 spacer
Description: Neoepitope (i.e. cancer-specific peptide) engineered cell line OCI-LY1 R110 expressing the IGLV3-21^R110 light chain as part of a BCR with induced R110 point mutation was generated from OCI-LY1 wt cells. First, OCI-LY1 wt cells were cultivated in RPMI 1640 Medium, GlutaMAX™ Supplement (Thermo Fisher, Cat. 61870044) supplemented with 20% (v/v) FBS (Life Technologies, Cat. 10500064) and 1% (v/v) penicillin-streptomycin (10,000 U/mL) (Thermo Fisher, Cat. 15140122) at 37° C. in a humidified atmosphere including 5% CO2. […]
Target cells seeded at 2×10^4 cells/well in a 96-well plate were co-incubated with effector cells at effector-to-target (E: T) ratio 5:1 in complete CTL medium consisting of RPMI 1640 Medium GlutaMAX™ Supplement (Thermo Fisher, Cat. 61870044) supplemented with 10% (v/v) FBS (Life Technologies, Cat. 10500064), 1% (v/v) penicillin-streptomycin (10,000 U/mL) (Thermo Fisher, Cat. 15140122), 50 μM β-mercaptoethanol (Thermo Fisher, Cat. 31350010) and 50 U/mL IL-2 (StemCell, Cat. 78036.1). CAR T cell mediated tumor cell killing was assessed using the IncuCyte@ Caspase-3/7 Green Reagent for Apoptosis (Sartorius, Cat. 4440) according to the manufacturer's instructions. Read out of dead (-green-fluorescent) target cells was performed on an
IncuCyte@ S3 (Sartorius) after 2 to 16 hours or 4 to 36 hours. The killing graphs were calculated by the IncuCyte@ software (version 2022A). […]

T1 sequence (P80748 with tags, fused parts or gaps V22E/Q35K/G42A/V66I/D68Y/S112G): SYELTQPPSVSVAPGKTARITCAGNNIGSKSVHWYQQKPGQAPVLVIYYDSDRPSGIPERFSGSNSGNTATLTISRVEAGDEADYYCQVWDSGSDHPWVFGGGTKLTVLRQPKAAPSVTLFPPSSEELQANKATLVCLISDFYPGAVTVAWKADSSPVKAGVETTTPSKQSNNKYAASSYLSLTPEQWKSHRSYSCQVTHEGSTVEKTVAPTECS
wild-type IGLV3-21G110-variant, sequence (as listed by the source): as the sequence (P80748 with tags, fused parts or gaps V22E/Q35K/G42A/V66I/D68Y/S112G) above, with R110G counted along it
wild-type IGLV3-21G110-variant, sequence (P01871 with tags, fused parts or gaps partner): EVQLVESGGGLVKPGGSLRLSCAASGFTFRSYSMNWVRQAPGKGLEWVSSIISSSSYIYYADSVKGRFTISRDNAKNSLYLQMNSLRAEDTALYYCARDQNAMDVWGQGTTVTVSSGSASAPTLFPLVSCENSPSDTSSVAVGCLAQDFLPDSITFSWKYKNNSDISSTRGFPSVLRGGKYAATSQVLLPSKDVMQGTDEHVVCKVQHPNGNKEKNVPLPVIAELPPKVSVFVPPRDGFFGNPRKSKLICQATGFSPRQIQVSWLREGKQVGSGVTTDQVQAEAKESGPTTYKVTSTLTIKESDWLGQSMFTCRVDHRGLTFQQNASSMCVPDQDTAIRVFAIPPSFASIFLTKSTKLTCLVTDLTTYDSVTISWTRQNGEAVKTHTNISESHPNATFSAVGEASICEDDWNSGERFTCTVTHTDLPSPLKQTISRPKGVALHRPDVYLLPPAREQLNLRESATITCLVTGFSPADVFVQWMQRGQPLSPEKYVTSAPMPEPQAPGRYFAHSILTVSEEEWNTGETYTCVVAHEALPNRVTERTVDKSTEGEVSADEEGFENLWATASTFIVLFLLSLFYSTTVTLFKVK
wild-type IGLV3-21G110-variant, sequence (P11911 29-220 partner): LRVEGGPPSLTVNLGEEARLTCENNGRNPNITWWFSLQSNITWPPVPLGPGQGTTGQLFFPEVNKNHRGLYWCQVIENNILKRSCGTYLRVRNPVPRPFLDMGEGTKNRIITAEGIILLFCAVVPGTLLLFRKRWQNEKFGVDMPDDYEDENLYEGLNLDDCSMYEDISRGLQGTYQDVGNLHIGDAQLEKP
wild-type IGLV3-21G110-variant, sequence (P15530 26-228 partner): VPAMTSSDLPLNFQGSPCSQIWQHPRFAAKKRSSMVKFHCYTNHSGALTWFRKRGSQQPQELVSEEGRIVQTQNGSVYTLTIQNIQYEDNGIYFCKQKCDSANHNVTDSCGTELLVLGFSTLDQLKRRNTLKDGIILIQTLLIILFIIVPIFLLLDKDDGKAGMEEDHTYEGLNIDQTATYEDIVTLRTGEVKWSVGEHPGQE

Row | Molecule | binding to wild-type IGLV3-21G110-variant [1] | binding to IGLV3-21^R110-BCRs [2] | killing capacity, CAR construct 1 versus CAR construct 2 [3]
1 | B1 | without any detectable binding | high specificity and cross-reactivity | –
2 | B2 | – | – | remarkably higher in CAR construct 1 than in CAR construct 2
3 | B3 | – | – | remarkably higher in CAR construct 1 than in CAR construct 2
